The values that follow are results of earlier work, collected in article PMC9583766.

In this data set the target is plasma prekallikrein (PK) (Homo sapiens) (UniProt P03952).
Chain of UniProt P03952 (P03952 20-638): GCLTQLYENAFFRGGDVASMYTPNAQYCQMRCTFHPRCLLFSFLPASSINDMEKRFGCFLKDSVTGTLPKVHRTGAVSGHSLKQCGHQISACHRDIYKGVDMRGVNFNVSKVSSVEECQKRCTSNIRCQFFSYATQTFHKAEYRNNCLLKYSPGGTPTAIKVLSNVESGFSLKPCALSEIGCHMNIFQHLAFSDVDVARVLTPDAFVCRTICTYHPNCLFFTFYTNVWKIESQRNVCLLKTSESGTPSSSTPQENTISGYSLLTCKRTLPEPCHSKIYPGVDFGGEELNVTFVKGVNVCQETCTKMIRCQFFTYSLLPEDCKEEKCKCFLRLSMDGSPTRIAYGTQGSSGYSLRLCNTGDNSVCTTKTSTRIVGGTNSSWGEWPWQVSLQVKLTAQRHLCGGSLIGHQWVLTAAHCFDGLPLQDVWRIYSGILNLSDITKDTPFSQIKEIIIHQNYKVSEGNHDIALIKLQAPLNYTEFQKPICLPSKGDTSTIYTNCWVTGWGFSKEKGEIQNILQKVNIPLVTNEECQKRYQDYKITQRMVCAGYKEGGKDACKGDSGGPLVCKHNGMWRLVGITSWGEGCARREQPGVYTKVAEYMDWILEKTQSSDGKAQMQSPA

For “high-molecular-weight kininogen (nHK) (from UniProt P01042)”, the Kd was 0.012 µM.
